T1: Claudin 1 (endogenous, in 16HBE human bronchial epithelial cells) (human, UniProt O95832 1-211)
T1 sequence (looked up): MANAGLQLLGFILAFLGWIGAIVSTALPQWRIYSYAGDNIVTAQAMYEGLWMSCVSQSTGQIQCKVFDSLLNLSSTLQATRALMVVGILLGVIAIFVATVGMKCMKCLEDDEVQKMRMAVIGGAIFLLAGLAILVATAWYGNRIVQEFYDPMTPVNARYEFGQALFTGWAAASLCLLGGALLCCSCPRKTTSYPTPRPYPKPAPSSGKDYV


Molecular target: T1, Claudin 1 (endogenous, in 16HBE human …)
Assay: cell-based or functional assay

enhancement of penetration of labeled Synagis antibody (168 kD), 2.4 µM peptide	enhancement of penetration of labeled Synagis antibody (168 kD), 12 µM peptide	increase in FD-40 permeability, 12 µM peptide	increase in FITC-dextran 40 kDa (FD-40) permeability, 2.4 µM peptide	increase in fluorescein (0.4 kDa) permeability, 2.4 µM peptide	increase in fluorescein permeability, 12 µM peptide	increase in FD-40 permeability, 2.4 µM peptide	increase in fluorescein permeability, 2.4 µM peptide	Binder
2.5 fold	3.2 fold	16.8 fold	11.2 fold	4.1 fold	6.7 fold			H-SSVSQSTGQIQSKVFDSLLNLSSTLQATR-NH2 [Peptide 1a, hCldn1 (53-81, C54,64S)]
4.9 fold	5.6 fold	30.5 fold			16.4 fold	25.3 fold	5.6 fold	H-SILTGVSTLDQSLKQLSNFSQAVSTQSSR-NH2 [Peptide 2a, scrambled peptide]

— patent US20160199440A1 (UNIVERSITY OF ROCHESTER, published 2016)
